Experimental findings from publication PMC5899921 (Cytoskeleton (Hoboken, N.J.), 2017) are described below.

The data set “electron microscopy” concerns the molecule itself. The experiment in a line: electron microscopy.
Data set [1] concerns the molecule itself. Put plainly: fluorescence correlation spectroscopy with photon counting histogram analysis.

B1: Myo2p, heavy chain of fission yeast myosin-II Myo2, in purified "Phosphorylated Myo2" (natural protein, S. pombe, UniProt Q9USI6 1-1526, looked up)
chain: MTEVISNKITAKDGATSLKDIDDKRWVWISDPETAFTKAWIKEDLPDKKYVVRYNNSRDEKIVGEDEIDPVNPAKFDRVNDMAELTYLNEPAVTYNLEQRYLSDQIYTYSGLFLVAVNPYCGLPIYTKDIIQLYKDKTQERKLPHVFAIADLAYNNLLENKENQSILVTGESGAGKTENTKRIIQYLAAIASSTTVGSSQVEEQIIKTNPVLESFGNARTVRNNNSSRFGKFIKVEFSLSGEISNAAIEWYLLEKSRVVHQNEFERNYHVFYQLLSGADTALKNKLLLTDNCNDYRYLKDSVHIIDGVDDKEEFKTLLAAFKTLGFDDKENFDLFNILSIILHMGNIDVGADRSGIARLLNPDEIDKLCHLLGVSPELFSQNLVRPRIKAGHEWVISARSQTQVISSIEALAKAIYERNFGWLVKRLNTSLNHSNAQSYFIGILDIAGFEIFEKNSFEQLCINYTNEKLQQFFNHHMFVLEQEEYMKEEIVWDFIDFGHDLQPTIDLIEKANPIGILSCLDEECVMPKATDATFTSKLDALWRNKSLKYKPFKFADQGFILTHYAADVPYSTEGWLEKNTDPLNENVAKLLAQSTNKHVATLFSDYQETETKTVRGRTKKGLFRTVAQRHKEQLNQLMNQFNSTQPHFIRCIVPNEEKKMHTFNRPLVLGQLRCNGVLEGIRITRAGFPNRLPFNDFRVRYEIMAHLPTGTYVESRRASVMILEELKIDEASYRIGVSKIFFKAGVLAELEERRVATLQRLMTMLQTRIRGFLQRKIFQKRLKDIQAIKLLQANLQVYNEFRTFPWAKLFFNLRPLLSSTQNDKQLKKRDAEIIELKYELKKQQNSKSEVERDLVETNNSLTAVENLLTTERAIALDKEEILRRTQERLANIEDSFSETKQQNENLQRESASLKQINNELESELLEKTSKVETLLSEQNELKEKLSLEEKDLLDTKGELESLRENNATVLSEKAEFNEQCKSLQETIVTKDAELDKLTKYISDYKTEIQEMRLTNQKMNEKSIQQEGSLSESLKRVKKLERENSTLISDVSILKQQKEELSVLKGVQELTINNLEEKVNYLEADVKQLPKLKKELESLNDKDQLYQLQATKNKELEAKVKECLNNIKSLTKELENKEEKCQNLSDASLKYIELQEIHENLLLKVSDLENYKKKYEGLQLDLEGLKDVDTNFQELSKKHRDLTFNHESLLRQSASYKEKLSLASSENKDLSNKVSSLTKQVNELSPKASKVPELERKITNLMHEYSQLGKTFEDEKRKALIASRDNEELRSLKSELESKRKLEVEYQKVLEEVKTTRSLRSEVTLLRNKVADHESIRSKLSEVEMKLVDTRKELNSALDSCKKREAEIHRLKEHRPSGKENNIPAVKTTEPVLKNIPQRKTIFDLQQRNANQALYENLKRDYDRLNLEKHNLEKQVNELKGAEVSPQPTGQSLQHVNLAHAIELKALKDQINSEKAKMFSVQVQYEKREQELQKRIASLEKVNKDSLIDVRALRDRIASLEDELRAA
modifications: phosphoserine at 1444 (largely phosphorylated, LC/MS/MS)
For B1, the “stoichiometry N” value in the data set “electron microscopy” worked out at 2.

B2: mEGFP-Myo2 (Myo2 heavy chain with an N-terminal mEGFP tag) (natural protein, S. pombe, UniProt Q9USI6 1-1526, looked up)
chain: MTEVISNKITAKDGATSLKDIDDKRWVWISDPETAFTKAWIKEDLPDKKYVVRYNNSRDEKIVGEDEIDPVNPAKFDRVNDMAELTYLNEPAVTYNLEQRYLSDQIYTYSGLFLVAVNPYCGLPIYTKDIIQLYKDKTQERKLPHVFAIADLAYNNLLENKENQSILVTGESGAGKTENTKRIIQYLAAIASSTTVGSSQVEEQIIKTNPVLESFGNARTVRNNNSSRFGKFIKVEFSLSGEISNAAIEWYLLEKSRVVHQNEFERNYHVFYQLLSGADTALKNKLLLTDNCNDYRYLKDSVHIIDGVDDKEEFKTLLAAFKTLGFDDKENFDLFNILSIILHMGNIDVGADRSGIARLLNPDEIDKLCHLLGVSPELFSQNLVRPRIKAGHEWVISARSQTQVISSIEALAKAIYERNFGWLVKRLNTSLNHSNAQSYFIGILDIAGFEIFEKNSFEQLCINYTNEKLQQFFNHHMFVLEQEEYMKEEIVWDFIDFGHDLQPTIDLIEKANPIGILSCLDEECVMPKATDATFTSKLDALWRNKSLKYKPFKFADQGFILTHYAADVPYSTEGWLEKNTDPLNENVAKLLAQSTNKHVATLFSDYQETETKTVRGRTKKGLFRTVAQRHKEQLNQLMNQFNSTQPHFIRCIVPNEEKKMHTFNRPLVLGQLRCNGVLEGIRITRAGFPNRLPFNDFRVRYEIMAHLPTGTYVESRRASVMILEELKIDEASYRIGVSKIFFKAGVLAELEERRVATLQRLMTMLQTRIRGFLQRKIFQKRLKDIQAIKLLQANLQVYNEFRTFPWAKLFFNLRPLLSSTQNDKQLKKRDAEIIELKYELKKQQNSKSEVERDLVETNNSLTAVENLLTTERAIALDKEEILRRTQERLANIEDSFSETKQQNENLQRESASLKQINNELESELLEKTSKVETLLSEQNELKEKLSLEEKDLLDTKGELESLRENNATVLSEKAEFNEQCKSLQETIVTKDAELDKLTKYISDYKTEIQEMRLTNQKMNEKSIQQEGSLSESLKRVKKLERENSTLISDVSILKQQKEELSVLKGVQELTINNLEEKVNYLEADVKQLPKLKKELESLNDKDQLYQLQATKNKELEAKVKECLNNIKSLTKELENKEEKCQNLSDASLKYIELQEIHENLLLKVSDLENYKKKYEGLQLDLEGLKDVDTNFQELSKKHRDLTFNHESLLRQSASYKEKLSLASSENKDLSNKVSSLTKQVNELSPKASKVPELERKITNLMHEYSQLGKTFEDEKRKALIASRDNEELRSLKSELESKRKLEVEYQKVLEEVKTTRSLRSEVTLLRNKVADHESIRSKLSEVEMKLVDTRKELNSALDSCKKREAEIHRLKEHRPSGKENNIPAVKTTEPVLKNIPQRKTIFDLQQRNANQALYENLKRDYDRLNLEKHNLEKQVNELKGAEVSPQPTGQSLQHVNLAHAIELKALKDQINSEKAKMFSVQVQYEKREQELQKRIASLEKVNKDSLIDVRALRDRIASLEDELRAA
B2: in data set [1], the “stoichiometry N” value is 2.

The stoichiometry N is a count of units in the complex or per binding partner.
